{
  "source": "patent US6680177B2",
  "about": "“Low molecular weight heparin assay, system and reagent therefor” (Cardiovascular Diagnostics, Inc., priority 2001, dated 2004)",
  "test_system": "citrated whole blood (CWB)",
  "experiment": "Interference testing for Rapidpoint ENOX test in citrated whole blood",
  "type": "biochemical",
  "conditions": "for EFFECT on ENOX test: CWB; for sensitivity of the ENOX test to the agent: in vitro, citrated whole blood",
  "data": [
    {"molecule": "Abciximab (antibody, chains of the INN, looked up, V domains shown, Fab, antiplatelet agent tested as interferent) VH: EVQLQQSGTVLARPGASVKMSCEASGYTFTNYWMHWVKQRPGQGLEWIGAIYPGNSDTSYIQKFKGKAKLTAVTSTTSVYMELSSLTNEDSAVYYCTLYDGYYVFAYWGQGTLVTVSA VL: EIVLTQSPVTLSVTPGDSVSLSCRASRDISNNLHWFQQTSHESPRLLIKYASQSMSGIPSRFSGSGSGTDFTLSINSVETEDFGMYFCQQTNSWPYTFGGGTKLEIK", "values": [
      {"measurement": "EFFECT on ENOX test", "setting": "0-3600 ng/ml", "value": "No effect at 0-3600 ng/ml"},
      {"measurement": "sensitivity of the ENOX test to the agent", "value": "insensitive"}
    ]},
    {"molecule": "Alteplase (protein, UniProt P00750 36-562, looked up, alteplase, fibrinolytic agent tested as interferent) Tissue-type plasminogen …: SYQVICRDEKTQMIYQQHQSWLRPVLRSNRVEYCWCNSGRAQCHSVPVKSCSEPRCFNGGTCQQALYFSDFVCQCPEGFAGKCCEIDTRATCYEDQGISYRGTWSTAESGAECTNWNSSALAQKPYSGRRPDAIRLGLGNHNYCRNPDRDSKPWCYVFKAGKYSSEFCSTPACSEGNSDCYFGNGSAYRGTHSLTESGASCLPWNSMILIGKVYTAQNPSAQALGLGKHNYCRNPDGDAKPWCHVLKNRRLTWEYCDVPSCSTCGLRQYSQPQFRIKGGLFADIASHPWQAAIFAKHRRSPGERFLCGGILISSCWILSAAHCFQERFPPHHLTVILGRTYRVVPGEEEQKFEVEKYIVHKEFDDDTYDNDIALLQLKSDSSRCAQESSVVRTVCLPPADLQLPDWTECELSGYGKHEALSPFYSERLKEAHVRLYPSSRCTSQHLLNRTVTDNMLCAGDTRSGGPQANLHDACQGDSGGPLVCLNDGRMTLVGIISWGLGCGQKDVPGVYTKVTNYLDWIRDNMRP", "values": [
      {"measurement": "EFFECT on ENOX test", "setting": "1000-3200 ng/ml", "value": "No effect at 1000-3200 ng/ml"},
      {"measurement": "sensitivity of the ENOX test to the agent", "value": "insensitive"}
    ]},
    {"molecule": "Tenecteplase (protein, UniProt P00750 36-562, looked up, variant T103N N117Q K296A H297A R298A R299A, tenecteplase, fibrinolytic agent tested as interferent) Tissue-type plasminogen …: SYQVICRDEKTQMIYQQHQSWLRPVLRSNRVEYCWCNSGRAQCHSVPVKSCSEPRCFNGGTCQQALYFSDFVCQCPEGFAGKCCEIDTRATCYEDQGISYRGNWSTAESGAECTNWQSSALAQKPYSGRRPDAIRLGLGNHNYCRNPDRDSKPWCYVFKAGKYSSEFCSTPACSEGNSDCYFGNGSAYRGTHSLTESGASCLPWNSMILIGKVYTAQNPSAQALGLGKHNYCRNPDGDAKPWCHVLKNRRLTWEYCDVPSCSTCGLRQYSQPQFRIKGGLFADIASHPWQAAIFAAAAASPGERFLCGGILISSCWILSAAHCFQERFPPHHLTVILGRTYRVVPGEEEQKFEVEKYIVHKEFDDDTYDNDIALLQLKSDSSRCAQESSVVRTVCLPPADLQLPDWTECELSGYGKHEALSPFYSERLKEAHVRLYPSSRCTSQHLLNRTVTDNMLCAGDTRSGGPQANLHDACQGDSGGPLVCLNDGRMTLVGIISWGLGCGQKDVPGVYTKVTNYLDWIRDNMRP", "values": [
      {"measurement": "EFFECT on ENOX test", "setting": "0-10,000 ng/ml", "value": "No effect at 0-10,000 ng/ml"},
      {"measurement": "sensitivity of the ENOX test to the agent", "value": "insensitive"}
    ]}
  ]
}
